From patent US20200024330A1

Key:
Test in all cases: cell-based or functional assay
[1] = target: HIV-1 JR-CSF Env T388A (HIV-1 (isolate JR-CSF)) (UniProt P20871)
[2] = target: HIV-1 JR-CSF Env I424A (HIV-1 (isolate JR-CSF)) (UniProt P20871)
[3] = target: HIV-1 JR-CSF Env T320A (HIV-1 isolate JR-CSF) (UniProt P20871)
[4] = target: HIV-1 JR-CSF Env K343A (HIV-1 isolate JR-CSF) (UniProt P20871)
[5] = target: HIV-1 JR-CSF Env D325A (HIV-1 isolate JR-CSF) (UniProt P20871)
[6] = target: HIV-1 JR-CSF Env D417A (HIV-1 (isolate JR-CSF)) (UniProt P20871)
[7] = target: HIV-1 JR-CSF Env V292A (HIV-1 JR-CSF) (UniProt P20871)
[8] = target: Env of the clade C HIV-1 pseudoviruses of the cross-clade 162-pseudovirus panel (n = 27)
[9] = target: HIV-1 JR-CSF Env L416A (HIV-1 (isolate JR-CSF)) (UniProt P20871)
[10] = target: HIV-1 JR-CSF Env N396A (HIV-1 (isolate JR-CSF)) (UniProt P20871)
[11] = target: HIV-1 JR-CSF Env S393A (HIV-1 (isolate JR-CSF)) (UniProt P20871)
[12] = target: HIV-1 JR-CSF Env R315A (HIV-1 isolate JR-CSF) (UniProt P20871)
[13] = target: HIV-1 JR-CSF Env F317A (HIV-1 isolate JR-CSF) (UniProt P20871)
[14] = target: HIV-1 JR-CSF Env F210A (HIV-1 JR-CSF) (UniProt P20871)
[15] = target: HIV-1 JR-CSF Env N302A (HIV-1 JR-CSF) (UniProt P20871)
[16] = target: HIV-1 JR-CSF Env I414A (HIV-1 (isolate JR-CSF)) (UniProt P20871)
[17] = target: HIV-1 Env of isolate 92TH021 (HIV-1)
[18] = target: HIV-1 JR-CSF Env N262A (HIV-1 JR-CSF) (UniProt P20871)
[19] = target: HIV-1 JR-CSF Env I307A (HIV-1 JR-CSF) (UniProt P20871)
[20] = target: Env of the clade B HIV-1 pseudoviruses of the cross-clade 162-pseudovirus panel (n = 31)
[21] = target: HIV-1 JR-CSF Env S334A (HIV-1 isolate JR-CSF) (UniProt P20871)
[22] = target: HIV-1 JR-CSF Env S387A (HIV-1 (isolate JR-CSF)) (UniProt P20871)
[23] = target: HIV-1 JR-CSF Env W395A (HIV-1 (isolate JR-CSF)) (UniProt P20871)
[24] = target: HIV-1 JR-CSF Env I326A (HIV-1 isolate JR-CSF) (UniProt P20871)
[25] = target: HIV-1 JR-CSF Env T202A (HIV-1 JR-CSF) (UniProt P20871)
[26] = target: HIV-1 Env of isolate MGRM-C-026 (HIV-1)
[27] = target: HIV-1 JR-CSF Env S199A (HIV-1 JR-CSF) (UniProt P20871)
[28] = target: HIV-1 JR-CSF Env P313A (HIV-1 JR-CSF) (UniProt P20871)
[29] = target: HIV-1 JR-CSF Env N241A (HIV-1 JR-CSF) (UniProt P20871)
[30] = target: HIV-1 JR-CSF Env T297A (HIV-1 JR-CSF) (UniProt P20871)
[31] = target: Env of the clade G HIV-1 pseudoviruses of the cross-clade 162-pseudovirus panel (n = 15)
[32] = target: HIV-1 JR-CSF Env N339A (HIV-1 isolate JR-CSF) (UniProt P20871)
[33] = target: Env of the clade AG HIV-1 pseudoviruses of the cross-clade 162-pseudovirus panel (n = 10)
[34] = target: HIV-1 JR-CSF Env T319A (HIV-1 isolate JR-CSF) (UniProt P20871)
[35] = target: HIV-1 JR-CSF Env I423A (HIV-1 (isolate JR-CSF)) (UniProt P20871)
[36] = target: Env of all HIV-1 pseudoviruses of the cross-clade 162-pseudovirus panel (n = 162)
[37] = target: HIV-1 JR-CSF Env I309A (HIV-1 JR-CSF) (UniProt P20871)
[38] = target: HIV-1 JR-CSF Env I415A (HIV-1 (isolate JR-CSF)) (UniProt P20871)
[39] = target: HIV-1 JR-CSF Env K305A (HIV-1 JR-CSF) (UniProt P20871)

B1: PGT-126 (antibody, V domains shown)
VH: QPQLQESGPGLVEASETLSLTCTVSGDSTAACDYFWGWVRQPPGKGLEWIGGLSHCAGYYNTGWTYHNPSLKSRLTISLDTPKNQVFLKLNSVTAADTAIYYCARFDGEVLVYHDWPKPAWVDLWGRGTLVTVSS
VL: QSALTQPPSASGSPGQSISISCTGTSNRFVSWYQQHPGKAPKLVIYGVNKRPSGVPDRFSGSKSGNTASLTVSGLQTDDEAVYYCSSLVGNWDVIFGGGTKLTVL
- Fold IC50 increase relative to wild-type [1]: 0.6 fold
- Fold IC50 increase relative to wild-type [2]: 0.4 fold
- Fold IC50 increase relative to wild-type [3]: 0.6 fold
- Fold IC50 increase relative to wild-type [4]: 1.2 fold
- Fold IC50 increase relative to wild-type [5]: 0.5 fold
- Fold IC50 increase relative to wild-type [6]: 1 fold
- Fold IC50 increase relative to wild-type [7]: 5 fold
- Median IC50 against viruses neutralized with an IC50 <50 µg/ml [8]: 0.18 µg/mL
- Fold IC50 increase relative to wild-type [9]: 0.8 fold
- Fold IC50 increase relative to wild-type [10]: 1.7 fold
- Fold IC50 increase relative to wild-type [11]: 0.5 fold
- Fold IC50 increase relative to wild-type [12]: 1 fold
- Fold IC50 increase relative to wild-type [13]: 1 fold
- Fold IC50 increase relative to wild-type [14]: 1.5 fold
- Fold IC50 increase relative to wild-type [15]: 0.9 fold
- Fold IC50 increase relative to wild-type [16]: 0.4 fold
- IC50 (µg/mL), pseudovirus neutralization [17]: 0.197 µg/mL
- Polyclonal Transfectant Neutralization Index (well 5141 B17) [17]: 2.74
- Primary Neutralization Index (B cell culture well 5141 B17) [17]: 2.3
- Fold IC50 increase relative to wild-type [18]: 1 fold
- Fold IC50 increase relative to wild-type [19]: 1.8 fold
- Median IC50 against viruses neutralized with an IC50 <50 µg/ml [20]: 0.02 µg/mL
- Fold IC50 increase relative to wild-type [21]: > 30 fold
- Fold IC50 increase relative to wild-type [22]: 0.6 fold
- Fold IC50 increase relative to wild-type [23]: 0.6 fold
- Fold IC50 increase relative to wild-type [24]: 0.8 fold
- Fold IC50 increase relative to wild-type [25]: 0.8 fold
- Polyclonal Transfectant Neutralization Index (well 5141 B17) [26]: 102
- Primary Neutralization Index (B cell culture well 5141 B17) [26]: 654
- Fold IC50 increase relative to wild-type [27]: 0.8 fold
- Fold IC50 increase relative to wild-type [28]: 0.4 fold
- Fold IC50 increase relative to wild-type [29]: 0.6 fold
- Fold IC50 increase relative to wild-type [30]: 0.8 fold
- Median IC50 against viruses neutralized with an IC50 <50 µg/ml [31]: 0.18 µg/mL
- Fold IC50 increase relative to wild-type [32]: 0.6 fold
- Median IC50 against viruses neutralized with an IC50 <50 µg/ml [33]: 0.03 µg/mL
- Fold IC50 increase relative to wild-type [34]: 0.8 fold
- Fold IC50 increase relative to wild-type [35]: 1.1 fold
- Median IC50 against viruses neutralized with an IC50 <50 µg/ml [36]: 0.04 µg/mL
- Fold IC50 increase relative to wild-type [37]: 1.2 fold
- Fold IC50 increase relative to wild-type [38]: 0.3 fold
- Fold IC50 increase relative to wild-type [39]: 1 fold
